Laboratory results published in article PMC12035560, “Structures of Mycobacterium tuberculosis isoprenyl diphosphate synthase Rv2173 in substrate-bound forms” (Acta Crystallographica Section F: Structural Biology …, 2025).

Target: the molecule itself
Test: crystal structure

B1: Mycobacterium tuberculosis isoprenyl diphosphate synthase Rv2173 (enzyme)
chain: LESTSLYKKAGSAAALFRFKKEPFTMAGAITDQLRRYLHGRRRAAAHMGSDYDGLIADLEDFVLGGGKRLRPLFAYWGWHAVASREPDPDVLLLFSALELLHAWALVHDDLIDRSATRRGRPTAQLRYAALHRDRDWRGSPDQFGMSAAILLGDLAQVWADDIVSKVCQSALAPDAQRRVHRVWADIRNEVLGGQYLDIVAEASAAESIESAMNVATLKTACYTVSRPLQLGTAAAADRSDVAAIFEHFGADLGVAFQLRDDVLGVFGDPAVTGKPSGDDLKSGKRTVLVAEAVELADRSDPLAAKLLRTSIGTRLTDAQVRELRTVIEAVGARAAAESRIAALTQRALATLASAPINATAKAGLSELAMMAANRSA
notes: also called tagged Rv2173; not shown: His6, N-terminal, kept
- stoichiometry N: 2
